Experimental data reported in paper PMC3810412.

T1: delta opioid receptor (Homo sapiens), P41143
T1 chain: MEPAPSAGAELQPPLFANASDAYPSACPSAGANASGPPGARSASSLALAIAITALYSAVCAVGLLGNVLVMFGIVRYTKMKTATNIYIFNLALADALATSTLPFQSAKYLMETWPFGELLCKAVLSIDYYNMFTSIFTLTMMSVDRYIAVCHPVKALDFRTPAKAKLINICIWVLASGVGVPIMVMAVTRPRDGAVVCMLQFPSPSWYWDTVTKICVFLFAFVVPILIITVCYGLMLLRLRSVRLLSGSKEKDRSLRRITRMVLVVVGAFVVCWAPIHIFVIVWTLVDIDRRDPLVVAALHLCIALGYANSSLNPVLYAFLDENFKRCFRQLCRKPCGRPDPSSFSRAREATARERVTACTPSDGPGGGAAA


Biological target: T1, delta opioid receptor (Homo sapiens), …
Experiment: radioligand competition
Conditions: modification not given

Binder	Ki [nM]
YAGFMALW [ligand 2]	25
YAGFMPLW [ligand 5]	13

Now those with a lower Ki, led by results:

Ki [nM]	Binder
2.9	YAGFMW [ligand 7]
0.6	YAGFLW [ligand 8]
